Values joined by “and” are separate entries in the source; they are usually repeats but may differ in a detail not shown here. Equal values may be shown once.

Stoichiometry N data for 2 substances are collected here from PMC6155322.

Test [1] addresses pyruvate kinase M2 type (PKM2), human HK-2 cells (human (endogenous in HK-2)) (UniProt P14618). In words: cross-linking; glutaraldehyde chemical cross-linking of scramble siRNA, sirt3 siRNA transfected and TGFβ alone treated HK-2 cells; Western blot. On the technique in general: In western blotting, separated proteins are transferred to a membrane and probed.
The target in test [2] is pyruvate kinase M2 type (PKM2), mouse kidney (mouse (endogenous in kidney)) (UniProt P52480). The experiment in a line: cross-linking; glutaraldehyde added to clarified kidney lysate (4 mg/mL; sodium phosphate buffer pH 7.3, 0.5% Triton X-100), 37 °C for 10 min, stopped with Tris; 5-20% SDS/PAGE and Western blotting; kidneys of control and diabetic CD-1 and C57Bl6 mice, scramble or sirt3 siRNA injected diabetic mice, DCA treated diabetic mice, KK/Ta-Ins2Akita mice and littermate controls.

Chain of pyruvate kinase M2 type (PKM2), mouse kidney, P52480 1-531 (enzyme; other documents disagree on this pair) (P52480 whole entry): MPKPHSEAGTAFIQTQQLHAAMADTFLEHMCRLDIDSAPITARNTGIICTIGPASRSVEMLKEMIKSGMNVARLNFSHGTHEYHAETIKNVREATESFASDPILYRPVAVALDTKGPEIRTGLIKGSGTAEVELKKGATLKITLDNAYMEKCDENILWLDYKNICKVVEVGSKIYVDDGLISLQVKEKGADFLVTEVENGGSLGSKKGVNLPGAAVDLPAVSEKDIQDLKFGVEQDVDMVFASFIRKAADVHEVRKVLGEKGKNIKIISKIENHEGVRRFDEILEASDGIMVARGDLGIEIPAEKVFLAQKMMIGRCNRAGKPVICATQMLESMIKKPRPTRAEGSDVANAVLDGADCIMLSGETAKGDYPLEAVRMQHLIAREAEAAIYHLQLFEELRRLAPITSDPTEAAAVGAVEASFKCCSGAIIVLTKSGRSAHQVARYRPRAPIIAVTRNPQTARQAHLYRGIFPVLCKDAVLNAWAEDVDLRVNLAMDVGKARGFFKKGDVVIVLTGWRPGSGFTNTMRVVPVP
Chain of pyruvate kinase M2 type (PKM2), human HK-2 cells, P14618 1-531 (enzyme; other documents disagree on this pair) (P14618 whole entry): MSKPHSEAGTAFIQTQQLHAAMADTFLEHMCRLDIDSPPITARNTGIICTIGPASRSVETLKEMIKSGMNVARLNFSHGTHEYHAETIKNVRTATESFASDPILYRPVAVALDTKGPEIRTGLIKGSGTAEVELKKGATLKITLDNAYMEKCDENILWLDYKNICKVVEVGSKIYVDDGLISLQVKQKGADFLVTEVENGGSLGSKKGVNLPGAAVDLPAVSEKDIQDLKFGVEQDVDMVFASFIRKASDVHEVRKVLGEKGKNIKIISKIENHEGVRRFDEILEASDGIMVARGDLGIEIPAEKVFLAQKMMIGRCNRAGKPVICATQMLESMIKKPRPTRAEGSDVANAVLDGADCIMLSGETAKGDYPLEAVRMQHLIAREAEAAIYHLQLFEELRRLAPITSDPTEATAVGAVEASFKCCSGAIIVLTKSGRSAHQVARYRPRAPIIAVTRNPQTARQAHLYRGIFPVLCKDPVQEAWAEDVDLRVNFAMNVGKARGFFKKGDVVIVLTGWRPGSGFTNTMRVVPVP

“pyruvate kinase M2 type (PKM2), human HK-2 cells, P14618 1-531 (enzyme; other documents disagree on this pair)” gave a stoichiometry N in test [1] of 2.

Turning to “pyruvate kinase M2 type (PKM2), mouse kidney, P52480 1-531 (enzyme; other documents disagree on this pair)”, the stoichiometry N in test [2] is 2 and 4.

As usually defined, the stoichiometry N is the number of molecules, sites or subunits per partner or assembly.
